Common to all, as to format: in vivo, mouse
Assay [1] can be described thus: Acute drug overdose test: METH-induced lethality. The conditions noted are these: 34, 68, 100, 160 mg/kg METH i.p. The protocol: (§1) For all behavioral experiments except where noted, C57BL/6J mice were used. Roughly equal numbers of adult male and female mice were group-housed until surgery. Mice were maintained under controlled temperature and humidity conditions on a 12 h:12 h light:dark cycle (lights on at 7:00). Water and food were available ad libitum. Mice weighed around 25-30 g at the beginning of the experiments. All procedures followed National Institutes of Health Guide for the Care and Use of Laboratory Animal and were approved by the University of Chicago Institutional Animal Care and Use Committee.
(§2) Drug: Cocaine HCl and methamphetamine HCl (Sigma-Aldrich, Saint Louis, MO) were dissolved in sterile saline and delivered intraperitoneally at appropriates doses in a volume of 10 mL/kg. […]
(§3) Acute drug overdose test: Two weeks after grafting surgery, 4 groups of GhBChE and 4 groups of GWT mice (n=8 each in each group) received i.p. injections of cocaine at 40, 120, and 160 mg/kg. […] Mice were monitored for 2 h following injection and percent of cocaine- and METH-induced lethality was calculated.
(§4) To first determine whether engrafting hBChE-expressing cells protects mice from acute systemic toxicity of cocaine, we delivered different doses of cocaine to grafted mice and calculated the lethality rates of cocaine. […]

Assay [2] in a line: Acute drug overdose test: cocaine-induced lethality. The note with it: 40, 80, 120, 160 mg/kg cocaine i.p. As to the method:
as §1, §2, §3, §4

Assay [3] in a line: Acquisition of cocaine conditioned place preference (CPP). The note with it: 10 mg/kg cocaine i.p., grafted cocaine-naïve mice. As to the method:
CPP apparatus: The CPP apparatus (FIG. 17; Med Associates, E. Fairfield, VT, USA) consisted of two larger chambers (16.8×12.7×12.7 cm), which were separated by a smaller chamber (7.2×12.7×12.7 cm) as previously described (Yan et al., 2013). […] Time spent in each chamber was measure via photobeam breaks and recorded. CPP was determined on testing days via time spent in the drug-paired side minus time spent in the saline-paired side.
Acquisition of CPP: A biased CPP procedure was used similar to that from a previous study (Yan et al., 2013). Acquisition of CPP consisted of three sequential procedures—pretest, conditioning, and test. […] On Day 6 (test day) mice were allowed to explore the entire chambers for 20 min and time spent in each area was recorded. […]
Next, protection against development of cocaine-seeking was assessed using the conditioned place preference (CPP) paradigm, which is thought to model reward learning and seeking because experimental animals approach and remain in contact with cues that have been paired with the effects of the reward. hBChE-expressing cells were grafted to cocaine-naïve mice with GWT animals as controls. […] As an additional control, ethanol CPP was measured after 4 days of conditioning in GhBChE and GWT mice.

The values that follow come from patent publication US20230392126A1, “TISSUE ORGANOIDS” (priority 2016, published 2023).

B1: hBChE: modified human butyrylcholinesterase (E30-6, SEQ ID NO: 41), cocaine hydrolase, expressed from engineered epidermal cells / skin grafts (protein)
chain: MHSKVTIICIRFLFWFLLLCMLIGKSHTEDDIIIATKNGKVRGMNLTVFGGTVTAFLGIPYAQPPLGRLRFKKPQSLTKWSDIWNATKYANSCCQNIDQSFPGFHGSEMWNPNTDLSEDCLYLNVWIPAPKPKNATVLIWIYGGGFQTGTSSLHVYDGKFLARVERVIVVSMNYRVGALGFLALPGNPEAPGNMGLFDQQLALQWVQKNIAAFGGNPKSVTLFGESSGAASVSLHLLSPGSHSLFTRAILQSGSANAPWAVTSLYEARNRTLNLAKLTGCSRENETEIIKCLRNKDPQEILLNEAFVVPYGTALGVNFGPTVDGDFLTDMPDILLELGQFKKTQILVGVNKDEGTWFLVGGAPGFSKDNNSIITRKEFQEGLKIFFPGVSEFGKESILFHYTDWVDDQRPENYREALGDVVGDYNFICPALEFTKKFSEWGNNAFFYYFEHRSSKLPWPEWMGVMHGYEIEFVFGLPLERRDNYTKAEEILSRSIVKRWANFAKYGNPNETQNNSTSWPVFKSTEQKYLTLNTESTRIMTKLRAQQCRFWTSFFPKVLEMTGNIDEAEWEWKAGFHRWNNYMMDWKNQFNDYTSKKESCVGL
modifications: Human mutant BChE
Turning to B1, in assay [1], the “METH-induced lethality, GhBChE vs GWT” value was “no difference in lethality”. In assay [2], the “cocaine-induced lethality in GhBChE mice” value is listed as “nearly lethality”. Further, the “cocaine CPP after 4 days of place conditioning” value in assay [3] is “showed no such preference”.
